Assay results reported in the supplement of paper PMC9112550, “Optimization of the antimicrobial peptide Bac7 by deep mutational scanning” (BMC Biology, 2022).

Each sequence was assayed on Escherichia coli TOP10 (assay: shrunken log2 fold change of peptide-encoding DNA abundance (4.5 h post-induction vs induction); higher = less antimicrobial activity (less host growth inhibition)). Conditions: time post-induction: 4.5 h; library: site-saturation at positions 5, 18, 19, 20.
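Further: peptides expressed intracellularly from a pBAD plasmid library in pooled LB shake-flask culture, induced with 0.3% L-arabinose, DNA abundance read by NGS, three biological replicates, DESeq2 with apeglm shrinkage.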

| Sequence | shrunken log2 fold change |
| --- | --- |
| RRIRPRPPRLPRPRPRPIMSPRP | 0.0779 |
| RRIRYRPPRLPRPRPRPFATPRP | -0.49 |
| RRIRDRPPRLPRPRPRPLGQPRP | 0.0401 |
| RRIRARPPRLPRPRPRPLAQPRP | 0.578 |
| RRIRRRPPRLPRPRPRPMPKPRP | 0.0841 |
| RRIRIRPPRLPRPRPRPLFMPRP | -0.756 |
| RRIRGRPPRLPRPRPRPGCIPRP | 0.445 |
| RRIRARPPRLPRPRPRPDQFPRP | 0.389 |
| RRIRDRPPRLPRPRPRPQKRPRP | -0.00561 |
| RRIRYRPPRLPRPRPRPCDAPRP | -0.255 |
| RRIRSRPPRLPRPRPRPRSFPRP | 0.124 |
| RRIRHRPPRLPRPRPRPIRGPRP | 0.0308 |
| RRIRMRPPRLPRPRPRPTSWPRP | 0.834 |
| RRIRCRPPRLPRPRPRPTVNPRP | -0.184 |
| RRIRARPPRLPRPRPRPDAQPRP | 1.35 |
| RRIRYRPPRLPRPRPRPAKEPRP | 0.0142 |
| RRIRFRPPRLPRPRPRPVADPRP | -0.00475 |
| RRIRTRPPRLPRPRPRPVWDPRP | 0.13 |
| RRIRIRPPRLPRPRPRPSKYPRP | -1.12 |
| RRIRVRPPRLPRPRPRPLGFPRP | 0.196 |
| RRIRKRPPRLPRPRPRPRAIPRP | 0.304 |
| RRIRNRPPRLPRPRPRPRRSPRP | 0.428 |
| RRIRRRPPRLPRPRPRPVMEPRP | 0.305 |
| RRIRGRPPRLPRPRPRPSLGPRP | 0.488 |
| RRIRARPPRLPRPRPRPMESPRP | 0.0501 |

| Sequence | shrunken log2 fold change |
| --- | --- |
| RRIRNRPPRLPRPRPRPVMLPRP | -0.171 |
| RRIRTRPPRLPRPRPRPHNKPRP | -0.702 |
| RRIRTRPPRLPRPRPRPRGVPRP | 0.196 |
| RRIRIRPPRLPRPRPRPCIMPRP | -0.466 |
| RRIRHRPPRLPRPRPRPVMLPRP | -0.196 |
| RRIRTRPPRLPRPRPRPWPYPRP | -0.157 |
| RRIRTRPPRLPRPRPRPNEDPRP | -0.0528 |
| RRIRERPPRLPRPRPRPELWPRP | 0.273 |
| RRIRHRPPRLPRPRPRPTPNPRP | -0.00791 |
| RRIRHRPPRLPRPRPRPENLPRP | -0.00992 |
| RRIRSRPPRLPRPRPRPDHSPRP | -0.096 |
| RRIRRRPPRLPRPRPRPNQDPRP | 0.125 |
| RRIRQRPPRLPRPRPRPMYIPRP | -0.0435 |
| RRIRKRPPRLPRPRPRPSQIPRP | 0.00892 |
| RRIRMRPPRLPRPRPRPVLGPRP | 0.741 |
| RRIRDRPPRLPRPRPRPAPAPRP | 0.661 |
| RRIRWRPPRLPRPRPRPMWMPRP | -0.195 |
| RRIRKRPPRLPRPRPRPIAAPRP | 0.317 |
| RRIRARPPRLPRPRPRPMNTPRP | 0.0292 |
| RRIRARPPRLPRPRPRPFEMPRP | 0.135 |
| RRIRRRPPRLPRPRPRPVCPPRP | 0.32 |
| RRIRQRPPRLPRPRPRPFFYPRP | -0.257 |
| RRIRWRPPRLPRPRPRPEWHPRP | 0.595 |
| RRIRSRPPRLPRPRPRPGEFPRP | -0.181 |
| RRIRKRPPRLPRPRPRPCVWPRP | 0.205 |

| Sequence | shrunken log2 fold change |
| --- | --- |
| RRIRPRPPRLPRPRPRPYKDPRP | -0.477 |
| RRIRRRPPRLPRPRPRPCQFPRP | -0.0684 |
| RRIRHRPPRLPRPRPRPNVKPRP | -0.112 |
| RRIRHRPPRLPRPRPRPYYQPRP | -0.416 |
| RRIRNRPPRLPRPRPRPAPRPRP | 1.6 |
| RRIRCRPPRLPRPRPRPHFSPRP | -0.473 |
| RRIRVRPPRLPRPRPRPPFQPRP | 0.164 |
| RRIRPRPPRLPRPRPRPQNPPRP | -0.216 |
| RRIRPRPPRLPRPRPRPIQEPRP | -0.019 |
| RRIRPRPPRLPRPRPRPRLRPRP | 0.458 |
| RRIRQRPPRLPRPRPRPTSYPRP | -0.154 |
| RRIRKRPPRLPRPRPRPNLEPRP | 0.185 |
| RRIRIRPPRLPRPRPRPEKHPRP | -0.106 |
| RRIRFRPPRLPRPRPRPPVIPRP | 0.0684 |
| RRIRFRPPRLPRPRPRPKTPPRP | 0.207 |
| RRIRVRPPRLPRPRPRPIYEPRP | -0.184 |
| RRIRGRPPRLPRPRPRPHLGPRP | 0.427 |
| RRIRFRPPRLPRPRPRPQKKPRP | -0.0897 |
| RRIRIRPPRLPRPRPRPLKNPRP | -0.202 |
| RRIRERPPRLPRPRPRPSLIPRP | -2.26 |
| RRIRFRPPRLPRPRPRPSRWPRP | 0.29 |
| RRIRFRPPRLPRPRPRPNEFPRP | -0.0262 |
| RRIRNRPPRLPRPRPRPQSIPRP | -0.0502 |
| RRIRPRPPRLPRPRPRPELNPRP | 0.117 |
| RRIRIRPPRLPRPRPRPVPDPRP | -0.0498 |
